Reference: the DeepSol protein solubility set

Test: soluble on expression in E. coli; label from the status in PepcDB or PDB records

Row | Sequence | soluble on expression in E. coli
1 | MGSDKIHHHHHHNDDPGKDPDVVTYDFKNLPADSGAKPTEDQMSAVVATFVDEVALPTYKDMLTKMTAYKNAVDKFIASGSKNDLADACDAWRAVRVPWEQSEAFLFGVADLAQLDPSLDSWPLDKNGIEEIIATGEFSKISGAVDEDAEDGPQNLRGFHTAEKMLFLDGEPRDLETSPFAKNELEYLKLVSERMLSDTQDLYNGWLKGLGTSDVPSSYAEAMKKHDGSAYSIGNVYQAIELMLNGNNGMAGISNEVGSAKITDPVTAWNGSNKDATDPNNPGVLAVESWYSWNSLDDYKNNIVSIKNAYFGGRDLDEESASESSLHALTKMINPTLDSLMVVQIDKTIDAINAIGYPFRNNLGDTEHINTATEACADLTTGLGVVKSKFTN | not soluble
2 | MKMIIAIVQDQDSQELADQLVKNNFRATKLATTGGFLRAGNTTFLCGVNDDRVDEILSVINQTCGNREQLVSPITPMGGSADSYIPYPVEVEVGGATVFVMPVDAFHQF | not soluble
3 | MGSDKIHHHHHHMMPELKSALYAGKVMHQRLKPRRHRLSYRIFFLLLDLDEIDAMSKRLRLLSHNRFNLFGFADADHGDGSGGSLKAYVEDMLKTAGIETDAGPIRLLSMPRMLGYAFNPISIYFCHSRQGDLVAILYEVNNTFGQRHSYLIPVGERHDETVRQHCDKRFYVSPFMAMGLNYRFRIGLPGENVAIHITASDDQGPLMVASFAGKRRALSDASLLRAFISYPLLTLKVTAGIHWEALRLWAKGIRLQERPAPPHNSITHVAMHGRLRRKAEPDVI | not soluble
4 | MGKPTGFLEYTREIPQELSPGDRLRNWDEFHVTMPDKQVETQGARCMDCGTPFCHTGSLISGMASGCPINNLIPEFNDLVYRGLWREALDRLHKTNNFPEFTGRVCPAPCEGSCVLGINNPPVTIKNIEYSIIEKGWQEGWVTPEPPAKRTGKKVAVVGSGPAGLAAAAQLNKAGHWVTVYEREDRPGGLLMYGIPNMKLDKEEVVLRRLNVLEAEGVTFVCNTEIGKDLPPETLLKDYDAVVLCTGATKPRDLAIAGRELEGIHFAMEFLTANTKAILDKTPGPNFISAKDKDVVIIGGGDTGTDCVGTSLRHGCRSLVQLEIMPKPPEERAANNPWPEWPKVYKMDYGQEEAAAVYGHDPRSYLTTATKIEGDDQGRVKAVHTVDVRWEKDGQGRFIPQQVAGTEQVRPAQLVLLAMGFVGPESQLLDAMKLDKDARGNIKAEYGQYETSIPGVFAAGDCRRGQSLVVWAFNEGRGAAKACDLYLMGETDLPLEHHHHHH | not soluble
5 | MGSDKIHHHHHHVDKFLYIAMSGAKQNLNSLSIRANNLANANTDGFKADLEQSRSMQAFGEGLPTRVFAMTENPQASFRHGPINSTARDLDVAVKGDGWIAVEDADGNEAYTRAGSLKFDETGLLTNSQGRPVMGDAGPIVLPLPIDKVEIAQDGTITVRPQGATAEVVEEVARIKLVNPGNQNLMRGDDGLFRMMNGTTAPQDETVALESRAVEGSNVNPVEEMVALIDIQRQFELQVKMMKTAEENDKASAQLVRIG | not soluble
6 | MPASYLHHRSVTQQLPIMSTPHTDFFGLTIPFMQLLGVVPEHSGNGTARTRLPARADLVNSRGDIHGGTLMSVLDFTLGAAIRGDTPEVGVATIDMNTSFMSPGRGDLVIETRCLRRGASIAFCEGEIRDSAGELVAKATATFKIIQRRPGLEHHHHHH | soluble
7 | SHMAPEDPNEEAVSQIFPDSVMLAVQEGIDLLTFPPAPGSPE | soluble
8 | MRGFLMFTSGPFDIDFVVLWVDGSDEKWLQKRAIYSSTKQQNNAVRFRDYGIFKYWFRAVAKYAPWVHHVYLVTDEQIPNWLSIQNSKVSVIDHKSIMPEDALPTFNSSAIELNIANIPGLSEHFVYFNDDMFLNRQVTPMDFFSEDGLPKDSAVQNAIMPVEDFDHMTANNVMLINQNFNKYQVLRRHPFRFFNFRYGFLNVLSICLLPWPRFTRFQDPHVPISFRKSVFEKVLNLHRDAWNETSHNRFRNRNDNTIWLIRYYQLVTAQFNPRTPFVGKKYNIGEMKKIVNDINTGKHKMICINDQNVSMAEFDNLTKQLRSTFRSKLPQKSEFEKMAGDPLEHHHHHH | not soluble
9 | MVQISDLPRDLTEEVLSRIPVTSMRAVRFTCKKWNTLSKDRSFTKKHLRGARAAAKKKQTKEFQVIMMIQFRVYLYSVNLLNPSIERIGKLISLDVEDHVDISKIFHCGGLLLCITKDISRLVVWNPYSGQTRWIKPRNSYHRLDRYALGYEEKNKSCRCYKILRFMDDYEDDRALRLIREFEIYDLNSDSWKVVNVTPDWDVEFYHRGLSLKGNTYWFAQEKLPPLPRGRVITISDMADFLLCFDFTRERFGPRLPLPFHSFVEDTVTLSSVRDKKLAVLFQPCSASTVKIWISRKIEPNAVSWRKVFLAVDMKSLTGFQFDINAASFFVDEKKKVAMVLDKDRFSYKFTRNIAYIIGKKGYFEKVDLGESTVSSCASLVCSYVPSSVQI | soluble
10 | MESTLQIMPVQRTSRNFGEYAEEAVIIEEPIIKQKRPLFIEANTIEASLEHLRNDCIIPVFAKDNEATLSHVAFIEAVQDATNTFFSGEQIESPDIRVSHVIKGRIPEAIHKPANQLLESDKTIYYERCAFVIEVPTIYETVHGNRLTLTIGGVRAYNHTNLYSKKGAERFKVFIGFTCKVCTNLCVSTDGYLSCLEVTNTRDLYQAVLEMFHKYDAAKHIHLMQSLGNTSMTEHQFCQLLGRMRLYQSLPQGYQKDIPKMLLTDTQVNNVARAYINDENFGSLGNDLSMWKLYNLLTGANKSSYIDSFLDRAYNATELATGICSALHGDNKYQWFLS | not soluble
11 | MTLDHQIINPTLKWSQPAVPSGGPLVQHAHTTLDSDAGLTENPLTKLLAIGKEDDNAQWHLSGSILDVYSGEQGISPINMGLTSASCPSSLPMKREITETDTRALAKERQKKDNHNLIERRRRYNINYRIKELGTLIPKSNDPDMRWNKGTILKASVEYIKWLQKEQQRARELEHRQKKLEQANRRLLLRIQVFIRM | not soluble
12 | MSLTSLYTGTFVDTPTPAGLRVRRNHLLAVSAQGAIAHIAPVSDPASQALLASAPPPTALGRHSFFLPTYADLHLHAAQYLYAGTGLDLPLLEWLERYAYRAEERVDADEQLAERLYGRLVQRLRENGTGCVVFFGTIGVQANLILARKAQEAGIRAFIGKLSMDESPRPSYGEASPAASLSSLNSFLDSMESYLSQFPSHRRLVQPIITPRFVPVCSDELLQGLAKVAQDRNVRLQSHMCEGRDQIDMSLKTKGLDDEKVFDKFGLLGPQTLQAHVTYLDDKLIPLIKERGVTIAHCPLSNQYLSERQFPLREALDASLSLGLGTDIAGGYSPSIHTAMRQAVIISRMREGDRCESLGCSFGTVKKEEEGGGRNLRVDWKEAVWAATRGGKAGMGLGGALEVGMEFDVQLIELASEENPTGTGPLDLFDLADSQVDTDTDEWWFDALERWWSNGDERNRKGMWVQGAKIAEGHHHHHH | soluble
13 | MGHHHHHHSHMLIPKTMGKMSPGHVRDLHGSPSHHRPRGPGGKSGFVGWAQGLCAVCSLGTWCPVSQLLQPWLKGANIELGLWLQRVEAPSIGSFHVMLSLWVQRCQELRFGNLCLDFRIYMETPGCPGKSLLQGQSPHGEPLLGQCGREMWGRAPTQSPCWGTA | not soluble
14 | MGSDKIHHHHHHMKKTSFIYLLLLIALGLSSCQQEKTFKVLQFNIWQEGAVVKGGFDAIADEIVRSNADFVTLSEVRNYHQTRFCDRIVEALQQRGQTYYSFYTEDSGLLSRYPITDSTTVYPLNDDRGSMYKAITHIGDTEVALYTAHLDYRNCAYYDARGYDGNTWDEEPPVTNLDTLLWLNEQSVRDDAIACFLKEAKKDREAGRIVILGGDFNEPSHLDWTEATKDMRDHQGLVVPWHVSVMLEKDGFKDTYREIFPNPVTHPGLTCPADCKDIALEKLVWSPKADDRDRIDFIHYAPFEGLTLTDVCIIGPKGDILRGQRETEETSDPIMTPLGIWPTDHKAVLATFHLK | not soluble
15 | MGSDKIHHHHHHSCTSQKKKLAKMHTEDTIVKAQLIQHTKESLLSPYQHVNFQLDLTKNKTAFYGYNTGSKWELWVKTDSTITFKYDGEEMVFSSAKTTEAQDNPVVKYHSKTIVSNPSQPGLKKSITVMIRDEKYLDEIQGTYVPLSVRIEVEDHTNKTTVIYAGGGFYVVNPIIHDIWVLDSMSNVKVSAENFPLGAPRLEFHLDGGKIYGFSGCNEITATFYTIQNQIQLNSEISTLKSCVHVPLEPLFMGALANKRYYYSFEERRLKLKHRDGSILSFKKVD | not soluble
16 | MTTALYLEDAYKTSCETEVIKVEGNKVFVKETVFYPTGGGQECDTGVIVQDGSVFEVEKVKKEQGEIVHYIKDEAQVKLGPVKLEINWERRHNLMRHHSLLHLIGAVVYEKYGALCTGNQIYPDKARIDFNELQELSSVEVEEIVEEVNKLIKQNKEISTRYMSREEAENAVGMIKTAINLLPTTIQEIRIVTIENLDEQACGGTHVKNTSEIGTLVIDKVKSKGKQNRRFEVRAI | not soluble
17 | MFILKDVTYKDILHIPYLQIQKEKITCIIGESGSGKSTLLRMLNDLQSPTSGIIEYNGKLISDYPPIQLRRDVVMLGQTPPIFDGTIKDNLLMGLRLSEKPFPNDDILRSALKTISLEKNLEDNADSLSGGEKQRLAFARIVLMDPPVYLLDEPTSALDSDTERRVMKQFTTLAREKKKTVIFITHSQQLPEEIADDIIEISKANGATRKEVLSVEGRY | not soluble
18 | MSLTASQQPTASQDPTRIDALVIGAGFGGMYAVHKLSGMGLSVQGFEAGGDVGGVWYWNRYPGARCDLMSLDYCYSFSPDIEQEWTWSEQFAAQSEILAYANFVADRLDLRRHFLFETWVTGAAYDEAANVWRVTVDDGRVFEATYCVMASGPLSIPKGVPFDGADDFKGEILLAAKWPHTPVSFEGKRVGLVGTGSTGIQIVPEVAKTAGALTVFQRTPSFTLPMRNVTLEPDYVAELKRNYAGIRQVARNSPLGGVRPQSTRPFFSVTPEQRRALMEDSWARGGLSFLGTFSDLLVNPEANEQVAEFVRSKISEVVTDPVTAEKLKPRGYPIFARRPCLDTHYYETFNLPHVKLHDCLESPIVKITPAGLLTETGEVELDVLIFATGYDGLTGALLNFDVVGRGGLQLRDKWRDGAKSHLGLMIASFPNLFLVCGPNGPAALANIITLDQQNIDWIADAITHMRQEGLATIEPTEGAEQGWMDMVYGMAELTLVSKANTWYVGGNISGKPRGLSMYTGGFQRYSEACRLAAEKGYEDFVFEKAATKQGARSEGHHHHHH | soluble
19 | MSLSLPPPRRVVLTTPTHFDVEYVINPHMSENVGAVNTDVAWQQWKALRAAYTALDHTPVLVNGQSGLPDMVFCANQTLPFYDPASDSKGVVLSRMHSEQRADEVPYYARFFEEEGYAVDTLPEDLDADFEGMGDALWHPGHHLLWGGYGYRTSPEAYEALGDLLDVPIVALRLVDPDYYHLDTCLCPLDARHALVAPEAFDDAGRALIDALFETVIEVPDHEARHQFACNAHCPDGAHVLIQEGCEGTNAQLRNHDFVPVELDTSEFMKSGGSVFCMKQMIWEGHHHHHH | not soluble
20 | MFQSSAAPAPQTADVTNPFGNFAAPSAFPTNVPPPAAHSAPFGVQPAPQHSAAPFYANLHQAPPMQSQAPNGHQAAPFGYPNAHPDDLARMTAQMSLNQQGAPAGWNTTTSAVSNNPFGATSAPQPMYTAPMGMYQQPFGAQPMWNPAMAAYGQQYGYGQPVPPQQQHQIQLVHAAMAAKNAAQAQQAQAASADPFGL | not soluble
21 | MGSDKIHHHHHHMTELHREAFDYAPNMRRLRAVIAVAEAGSVMRAAEALHLSQPAVTRAVRDLEKELGLALFERHRSGMLCTTAGKIVLHRFRRALQQLIEAETALARLHPEGNFERLPQRLSHRQLTVLVAVADLHNEPLAAKRLGLTQPAVSGNLRDLERLLGIALFLRTQRGMLATDGGAVLIRHAKMALRELSLVSDDLSAWQGEVRGRVVIGTLPLSSSLLVPHAVDALLRELPGLNVTIIEGTYDALFESLRHGEIDILIGALRQAGTSEDTHQQRLFHDRLAVAARQGHPLMKHAALQLSDLLDAQWIAPRQGTPARVSFEQEFRSAGLQPPSVVVESGNLSTIRTLLLDSDRVTLVSPHQVFFEVQSGQLALLPIKLTGTLRPIGITTRADDSPTQALKVLKDILLTLGERMADPSSATRA | not soluble
